In publication PMC4791469:

Legend:
[1] = biological target: Chlamydomonas [FeFe]-hydrogenase HYDA1 (CrHYDA1) (Chlamydomonas reinhardtii)
[2] = biological target: Chlamydomonas ferredoxin:NAD(P) reductase I (CrFNR1) (Chlamydomonas reinhardtii) (UniProt P53991)
UniProt P53991, sequence (P53991 36-354): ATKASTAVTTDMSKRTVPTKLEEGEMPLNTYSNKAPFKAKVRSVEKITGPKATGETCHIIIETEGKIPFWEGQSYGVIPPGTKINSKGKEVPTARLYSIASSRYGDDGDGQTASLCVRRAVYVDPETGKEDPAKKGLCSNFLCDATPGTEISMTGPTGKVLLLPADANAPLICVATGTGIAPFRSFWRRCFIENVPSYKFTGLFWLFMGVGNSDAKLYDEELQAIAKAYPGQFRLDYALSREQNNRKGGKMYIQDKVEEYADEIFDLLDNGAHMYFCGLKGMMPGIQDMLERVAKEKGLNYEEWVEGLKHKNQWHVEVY

Substance | hydrogen photo-production rate (thylakoids, 100 nM HYDA1, light, gas chromatography) [1] | Km for the ferredoxin in FNR1-catalysed NADPH photo-production (thylakoids, 0.5 μM FNR1, varied FDX, Lineweaver-Burk) [2] [µM] | catalytic efficiency kcat/Km of FNR1-catalysed NADPH photo-production with this ferredoxin [2] [M⁻¹ s⁻¹] | hydrogen photo-production rate (thylakoids, 100 nM HYDA1, light, gas chromatography) (µmol H2/µg Chl/h) [1]
Chlamydomonas reinhardtii ferredoxin 1 (CrFDX1), mature, tag cleaved (natural protein) | 489 | 0.4 | 1.7e+09 | 
Chlamydomonas reinhardtii ferredoxin 2 (CrFDX2), mature, wild type, tag cleaved (natural protein) | 86 | 0.18 | 3.5e+09 | 
CrFDX2 (∇95Y) (natural protein) | 134 | 0.38 |  | 

Results, then the substance that gave them:

hydrogen photo-production rate (thylakoids, 100 nM HYDA1, light, gas chromatography) [1] | Km for the ferredoxin in FNR1-catalysed NADPH photo-production (thylakoids, 0.5 μM FNR1, varied FDX, Lineweaver-Burk) [2] [µM] | catalytic efficiency kcat/Km of FNR1-catalysed NADPH photo-production with this ferredoxin [2] [M⁻¹ s⁻¹] | hydrogen photo-production rate (thylakoids, 100 nM HYDA1, light, gas chromatography) (µmol H2/µg Chl/h) [1] | Substance
 | 0.69 |  | 150 | CrFDX2 (M62F) (natural protein)
264 | 3.44 |  |  | CrFDX2 (M62F/∇95Y) (natural protein)
